Reference: ChEMBL document CHEMBL3352420, “Discovery of 2-pyridylureas as glucokinase activators” (J Med Chem, 2014)

How the values were obtained:
[1] = compound: CCc1ncccc1Oc1cc(Sc2ccccn2)cnc1NC(=O)NC(C)C; assay: (§1) Activation of purified human glucokinase isoform 3 (13 to 466 aa) assessed as Vmax by spectrophotometry in presence of varying concentration of glucose relative to control
[2] = compound: CNC(=O)Nc1ncc(SCCCOC)cc1Oc1cccnc1C; assay: as §1
[3] = compound: CNC(=O)Nc1ncc(SCC2CCOCC2)cc1Oc1cccnc1C; assay: as §1
[4] = compound: CCc1ncccc1Oc1cc(Sc2ccccn2)cnc1NC(=O)NCCO; assay: as §1
[5] = compound: CNC(=O)Nc1ncc(SCc2ccccn2)cc1Oc1cccnc1C; assay: as §1
[6] = compound: CCc1ncccc1Oc1cc(Sc2ccccn2)cnc1NC(=O)NCc1cccnc1; assay: as §1
[7] = compound: CCc1ncccc1Oc1cc(Sc2ccccn2)cnc1NC(=O)NCc1ccccn1; assay: as §1
[8] = compound: CCc1ncccc1Oc1cc(Sc2ccccn2)cnc1NC(=O)NC; assay: as §1
[9] = compound: CNC(=O)Nc1ncc(Sc2ccccn2)cc1Oc1c(C)n[nH]c1C; assay: as §1
[10] = compound: CNC(=O)Nc1ncc(SC2CCOCC2)cc1Oc1cccnc1C; assay: as §1
[11] = compound: CNC(=O)Nc1ncc(SC2CCN(C(=O)OC(C)(C)C)CC2)cc1Oc1cccnc1C; assay: as §1
[12] = compound: CNC(=O)Nc1ncc(SC2CCN(C(C)=O)CC2)cc1Oc1cccnc1C; assay: as §1
[13] = compound: CCc1ncccc1Oc1cc(Sc2ccccn2)cnc1NC(=O)NCc1ccncc1; assay: as §1
[14] = compound: CCn1nccc1Oc1cc(Sc2ccccn2)cnc1NC(=O)NC; assay: as §1
[15] = compound: CNC(=O)Nc1ncc(SC2CCN(S(C)(=O)=O)CC2)cc1Oc1cccnc1C; assay: as §1
[16] = compound: CNC(=O)Nc1ncc(SCCCO)cc1Oc1cccnc1C; assay: as §1
[17] = compound: CCc1ncccc1Oc1cc(Sc2ccccn2)cnc1NC(=O)NCc1ccc(O)cc1; assay: as §1
[18] = compound: CNC(=O)Nc1ncc(Sc2ccccn2)cc1Oc1cccnc1C; assay: as §1
[19] = compound: CCc1ncccc1Oc1cc(Sc2ccccn2)cnc1NC(N)=O; assay: as §1
[20] = compound: CCc1ncccc1Oc1cc(Sc2ccccn2)cnc1NC=O; assay: as §1
[21] = compound: CCc1ncccc1Oc1cc(Sc2ccccn2)cnc1NC(C)=O; assay: as §1
[22] = compound: CCc1ncccc1Oc1cc(Sc2ccccn2)cnc1NC(=O)NCc1ccccc1O; assay: as §1
[23] = compound: CCc1ncccc1Oc1cc(Sc2ccccn2)cnc1NC(=O)NCc1cccc(O)c1; assay: as §1
[24] = compound: CCNC(=O)Nc1ncc(Sc2ccccn2)cc1Oc1cccnc1CC; assay: as §1
[25] = compound: CNC(=O)Nc1ncc(SCc2ccccc2)cc1Oc1cccnc1C; assay: as §1
[26] = compound: CCOC(=O)Nc1ncc(Sc2ccccn2)cc1Oc1cccnc1CC; assay: as §1

B1: Hexokinase-4 (Homo sapiens), P35557 (protein)
chain: MLDDRARMEAAKKEKVEQILAEFQLQEEDLKKVMRRMQKEMDRGLRLETHEEASVKMLPTYVRSTPEGSEVGDFLSLDLGGTNFRVMLVKVGEGEEGQWSVKTKHQMYSIPEDAMTGTAEMLFDYISECISDFLDKHQMKHKKLPLGFTFSFPVRHEDIDKGILLNWTKGFKASGAEGNNVVGLLRDAIKRRGDFEMDVVAMVNDTVATMISCYYEDHQCEVGMIVGTGCNACYMEEMQNVELVEGDEGRMCVNTEWGAFGDSGELDEFLLEYDRLVDESSANPGQQLYEKLIGGKYMGELVRLVLLRLVDENLLFHGEASEQLRTRGAFETRFVSQVESDTGDRKQIYNILSTLGLRPSTTDCDIVRRACESVSTRAAHMCSAGLAGVINRMRESRSEDVMRITVGVDGSVYKLHPSFKERFHASVRRLTPSCEITFIESEEGSGRGAALVSAVACKKACMLGQ
Vmax [1]: Not active
Vmax [2]: 87%
Vmax [3]: 88%
Vmax [4]: 66%
Vmax [5]: 146%
Vmax [6]: 75%
Vmax [7]: 72%
Vmax [8]: 77%
Vmax [9]: 53%
Vmax [10]: 73%
Vmax [11]: 75%
Vmax [12]: 59%
Vmax [13]: 73%
Vmax [14]: 90%
Vmax [15]: 54%
Vmax [16]: 80%
Vmax [17]: 66%
Vmax [18]: 74%
Vmax [19]: 77%
Vmax [20]: 104%
Vmax [21]: Not active
Vmax [22]: 84%
Vmax [23]: 68%
Vmax [24]: 64%
Vmax [25]: 76%
Vmax [26]: Not active
